Measurements taken from article doi:10.1101/556266 (bioRxiv, 2019).
One block for each binder: values may come before it.

What was measured:
[1] = target: T1, GST-SIPA1l2-86-99 (rat, UniProt Q5JCS6 86-99); assay: pull-down
T1 chain: PKKDCSKDLACKTL

[2] = target: T2, GST-ActI-SIPA1L2-1-624 (rat, UniProt Q5JCS6 1-624); assay: pull-down
T2 sequence: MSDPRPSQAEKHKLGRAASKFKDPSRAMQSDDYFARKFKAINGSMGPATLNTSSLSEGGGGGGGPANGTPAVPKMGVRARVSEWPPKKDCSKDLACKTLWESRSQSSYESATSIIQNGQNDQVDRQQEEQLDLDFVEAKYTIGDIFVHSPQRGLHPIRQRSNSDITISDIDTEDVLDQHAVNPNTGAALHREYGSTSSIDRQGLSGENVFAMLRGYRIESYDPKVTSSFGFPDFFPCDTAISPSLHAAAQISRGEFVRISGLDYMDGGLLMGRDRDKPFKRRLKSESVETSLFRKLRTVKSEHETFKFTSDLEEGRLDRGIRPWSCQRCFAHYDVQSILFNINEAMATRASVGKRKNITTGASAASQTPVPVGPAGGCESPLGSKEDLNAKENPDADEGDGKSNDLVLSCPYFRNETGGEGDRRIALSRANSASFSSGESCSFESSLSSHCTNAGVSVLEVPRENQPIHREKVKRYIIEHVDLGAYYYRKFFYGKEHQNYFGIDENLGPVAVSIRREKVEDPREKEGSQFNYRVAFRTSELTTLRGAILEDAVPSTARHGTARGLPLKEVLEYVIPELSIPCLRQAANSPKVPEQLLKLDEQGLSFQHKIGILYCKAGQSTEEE

binding result [1]: binds
Binder: KLARHSKFGMKG [MBP-TrkB-454-465]

binding result [2]: binds
B1: MBP-TrkB-454-821 (domain or fragment)
chain: not shown
